The nature of the data set: soluble fraction after stress (log2 fold change); higher = more stays soluble; pooled small domains, quantitative proteomics. The note with it: stress: pH 4. Summed up:
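Aggregation propensity is read out as the fold change in how much of each domain remains soluble after acid stress. The custom small-domain libraries were pooled, held at pH 4 and analysed with high-throughput quantitative proteomics. On the log2 scale used, higher values mean more of the domain stayed soluble.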
Turning to “HMDEETVALQKAIHSLPPKQQAVFNMRYYDEMSFREIADANETTESSAKANYHFAKAKIIEQMKR”, the “soluble fraction (log2)” value came out at 0.166.
The value for “HMDEILHHPSYRAIYEYMLDHKHVKTKDIAALLNVKEPRARQLLKEMIDKHFIIALGSNRNREYELL” was 0.348; that for “HMDEKSGWLHLAPHEGALRAALYAEHAVQEERTAPDGSQWLRLVLREKHYHQIQSKYNRRLTLHTQPDPS” was at least 0.43; that for “HMDENDPYEILEIDRLASDDQVKAKYRALIRENHPDVLMAKGVPQEFIDLANRKMAVINAAYDRIEKEREF” was -0.616.
On to “HMDEPGAGYKWREDVLLRVMASHGIEESLRDDFVRHAVGFDNDDNMYLKKVEIENAAAAWVAN”, for which the “soluble fraction (log2)” value is -1.36.
Turning to “HMDETELLLQKAIATLPDKQRVVFNLKYFDEMKYEEMSELLETSVGALKASYHLAVKKIEQFFHDA”, the “soluble fraction (log2)” value is -0.241.
The value for “HMDETYRRQLEDLAREHGAEYLHGILREVDPASAEAIHANNIKRVIRALEFYHLSGKKISEHNETERQ” was -0.00358; that for “HMDEVHYLADKERGTTWEEILIHADRDIKFLSLSATINNKNEFLEWLVSLRGTTSLIHSSTRPIPLEI” was -0.682; that for “HMDEVLDQFVRGQIYGYIRANPGDIYSSIRDNLGLKNGVTTYHLDVLAREEYVYSEIDGTNRRFYPSGWEE” was -2.23.
Regarding “HMDEVVVVERGGVQITMSEIDAKIMELPVDVRPSYLDSPERLQNFVSNLLLEKQAAQLKSQY”, the “soluble fraction (log2)” value is -1.42.
In the case of “HMDEWDPAILYVGLDYEDAAQIATRLATSGVPYRLSPDGTMITVPDDQVNNMRLTLAGEGFPH”, the “soluble fraction (log2)” value was -1.12.
Take “HMDEYFNPETVVHYLRELFDTYRENGGNPFEWFHSTFESVNLNPQNYRKDLITTIEKALIEWIEIFEKQ”: the “soluble fraction (log2)” value was -0.553.
Turning to “HMDFDPDVPSREDILQAFRDSKPPLTVNALISEFGLSRDASIVGLERRMGAMQRDGQLEQTPSGWQLSV”, the “soluble fraction (log2)” value worked out at 0.144.
The value for “HMDFFVLVGAYKTPDEAETIRAKIAFSGLDSSVSHGNDGRYRVRIGPFHSEGDARKAQSTLRANDIPGQII” was 0.18; that for “HMDFGMPEELQKKLDKMPALKAAFEALTPGRQRGYIFYFSQPKQSKTRELRIEKSIEQIMNGKGLND” was 0.199.
The value for “HMDFIEYIISEESKGLRADQAISMENDKFSRSLIQKWIKKGRVLVNGRKIKPKDIVNLNDKITINPEESIN” was -0.597; that for “HMDFITPYEIEQGQYEGAELYEDGKFEEAFSLSSIAAQRGMKTAQYLLGIMFLKGEYVDQSLAIGMAW” was -1.18; that for “HMDFPYISGIEIAAIKNREFIRIETDKAQEIAIALDKSGIPFSARFSDAEMVLTYDGSYKEQVEDIIAKA” was -0.808.
For the sequence “HMDFSERLARAMSLAGYTQGRLAKEVGMAQSSVNKLLNGANGSRKTVEIASVLGVRPEWLSTGAGEML”, the “soluble fraction (log2)” value is 0.0512.
For the sequence “HMDFSSRLKDERKRLKLSQAQLGEAGGVSKDAQLNYENGSRSPSASYLELIAREGVDVQFLLTGKRS”, the “soluble fraction (log2)” value is -0.0636.
Under “HMDFSYTVGDIDEPIDSRGNSVIMLRKLAWGSNAEKLEIRRWIIDIDSERANKGVTFLTEEGPHNLVRV” stands -0.332; under “HMDFTISDADFHRLVQFIQQNYGVALSKKRQLISSRLSHSLRELGYKDFRTFLEHLFSTRDPADLELVLNK”, -0.399.
The value for “HMDFYVILGVDRAASLSDVKRAYRRLARKHHPDINPGDPESDAFFMRVTEAYETLVDPDRRQEYDEHG” was -1.34.
The value for “HMDGEFINLKNRAGTEIEARILNYQNGQVKLERKDGVTFVVSISMFDAKSVIAINHKIAEIIDT” was 0.12.
For the sequence “HMDGIDALEPLMRRVFEALPQRRSMTIERAAVAAGLDEESVKIALVRLQLEGYVANDERGWHRSKSPH”, the “soluble fraction (log2)” value is -0.000736.
Take “HMDGIGLRVRMIREGVGLTQKQLAEHLGMQRTALVQVEAGSRKLSASELIGVARFFNITVEQFLDPEK”: the “soluble fraction (log2)” value was -1.72.
Turning to “HMDGIPVPDVKGTVEAEATATLKNSGFEVTKTQDFSDTVEAGKVISQNPAGGSSAASGSSVTLVISQGPN”, the “soluble fraction (log2)” value is -0.232.
The value for “HMDGISANAVKALIESLIAGEDKRKPLSDQAMSDRLALQGIVLARRTVAKYREELNFPPAHQRKQK” was 0.22; that for “HMDGLPYPEAAEEPIAQVARNLGMDATRVSIALQEAKLIFRNLDETLAEIAANNGTTPQVVYDAIRHLEPP” was -0.372; that for “HMDGLTEQQADDILAFISIKGTNAEVLAALENYAGRNETFDTGLSELKVVASNLAAFGMPEENFVVDL” was 0.0229.
For “HMDGPGDRLLIAIQENSMTQKKFAQLIGMSPNGLNSIIKGKKRLSRVLAIATERLTGVRADWILQNEQPK”, the “soluble fraction (log2)” value is -0.244.
As for “HMDGQPLSERQQEILRWVAEGLSNREIGERLNITPNTVRDHLSEVMRRLEVSNRTSAVSTAFHLGLLP”, the “soluble fraction (log2)” value was -0.178.
In the case of “HMDGRIRFRHAALHDPDVAARLHDYLTTSLPGVRSARVNSQTGSLLLEYDPEVLDRSTLLDLAARAESLL”, the “soluble fraction (log2)” value is -1.06.
The value for “HMDGRSLSHATLEEIRIRAVQRVEAGESPEVVVKALGFSRPRIYEWLALYREGGLEALRAKPV” was -0.53.
Under “HMDGSEYAGTVRLGDGTLQPVPRFETSNSETPKYLYLVMDVTHDPPVYILEHESAELKSVLGGLVLIGSYS” stands -0.0612; under “HMDGTVRGKTTFQELLDWGVPQERIEAVLGGPIPAPGVVIKDYVTAQGKEFSAVRDALQAEVDAVLK”, -0.229; under “HMDGVLLDHLDGFVTTRRGVEAWLEQPTSFNKPSILLVAADGESTRRAIPSIAFGYDFASRHDIPAYDAG”, -1.29.
As to “HMDGVPPAGSRIRLTVSTQVGDKEFEGTLVPPAGVDLLTLKLANGYNLSHSIADVREVVLIEEGLQGEEP”, the “soluble fraction (log2)” value is -2.05.
Regarding “HMDGVSLLFKLMETLPEQQKTILHLRDVEQLEFAEIAKITNTSQANVRVALSRARKKIKDLLLKQY”, the “soluble fraction (log2)” value was -1.31.
For the sequence “HMDGVYLKSLKQTEQHIHWSGYAQSNAWVSTLMRNLDASPWFESPLLIEIKAATINNSRSNEFDLNVRL”, the “soluble fraction (log2)” value was determined as 0.102.
Under “HMDGYTVYTNWGSDTNVARSDQQIQSQIPQLSGATIVGVWTKPIATGGTSYKIRYRTNSGAFTEIDVDQ” stands -0.0816.
With “HMDHKTKLQEVLQKSGDVFIEYRLIKEEGPAHERIFWIEVYVDDQLIGTGQGKSKKLAEQAAAENALAALE”, the “soluble fraction (log2)” value was -1.15.
Regarding “HMDIEHREMKLQKLVITADSPLVGKTLKESNVRQRYNFMVVGVEEGQKNLTMINPNRRFEVGDIVWVVGEE”, the “soluble fraction (log2)” value was -0.204.
The value for “HMDIFGREAEVEQILQEVRFGDDPHYRLSIGILPVTGHAGAGKTALVRFIFHHEVARAEFTVRMWVHV” was -0.998; that for “HMDIGKNIQTIRYANKLTQDQVIAKLNLMGISMSKSTYAKLETNRMNIKVSELVALAKIFHTDINAF” was -0.274; that for “HMDIGTYTVTASALNIRQYPTASSAKTGSYPNGSIVTIYEYLTDGSWGRTDDGWISMNYVSRRY” was -1.37.
The value for “HMDIHSEEYILGQNIRKYRLRLGWSQADLSNAVDIDRADISKYENGAKGIMSSTLLRKFAKALGVSMDALM” was 0.0187; that for “HMDILPRMVASEMRAVGVPPERMTREEKGTVIRNLMNAGIHQMKGAVVEIARQLHLSEPTVYRYIKREKG” was -0.177.
Consider “HMDINMELGKNIRRLRKLNNLTQQSLANQMNRSKTLIALWEKGERDPSSIDLKRLSEIFNVRADDIIG”, for which the “soluble fraction (log2)” value is -0.00935.
With “HMDIRMLLSDREEEIMILLSKGLSISEAANRMQIGQASAATYLNRARRKLKAETVRQAVAIWTGD”, the “soluble fraction (log2)” value was -0.422.

For the origin of these results see the domain aggregation screens of Martell et al. (2025).
